The assay concerns the target T1, His-Dsx^CR (Dsx common region, aa residues 1-397) (Drosophila, UniProt P23023 1-397).
T1 construct: Doublesex (Dsx), Drosophila, region common to the male and female isoforms, aa residues 1-397; source: bacterially expressed (0.5 mM IPTG, 18°C, 2 h), cell lysate for the pulldown; purified and dialyzed for EMSA; not shown: His tag, N-terminal, kept
As to the kind of experiment: pull-down; GST pulldown: GST-tagged AbdB proteins or GST alone as bait; bacterially expressed His-tagged Dsx proteins as input cell lysates; Western blot; three repetitions. To be noted: one partner purified.

These results are taken from publication PMC6737903, “The Hox gene Abdominal-B uses Doublesex^F as a cofactor to promote neuroblast apoptosis in the Drosophila central nervous system” (Development (Cambridge, England), 2019).

T1 sequence (P23023 1-397): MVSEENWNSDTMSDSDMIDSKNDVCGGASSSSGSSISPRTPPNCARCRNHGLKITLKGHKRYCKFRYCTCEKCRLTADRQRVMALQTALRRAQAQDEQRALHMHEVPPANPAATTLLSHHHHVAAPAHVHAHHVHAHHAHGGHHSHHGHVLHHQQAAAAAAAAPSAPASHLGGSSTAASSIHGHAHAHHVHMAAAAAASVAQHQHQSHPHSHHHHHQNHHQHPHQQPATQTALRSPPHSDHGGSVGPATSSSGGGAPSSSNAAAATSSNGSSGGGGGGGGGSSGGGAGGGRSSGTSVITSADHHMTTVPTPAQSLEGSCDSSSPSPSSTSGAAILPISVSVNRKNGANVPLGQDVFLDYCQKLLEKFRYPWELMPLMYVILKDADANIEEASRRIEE

B1: GST-AbdB-N (truncated version of AbdB-r, aa residues 89-270) (domain or fragment)
chain: not shown
notes: Abdominal-B (AbdB), Drosophila, regulatory isoform AbdB-r, aa residues 89-270; printed length of AbdB-r by the limits: 270; numbers count on: the AbdB-r isoform; The results say that AbdB-N lacks the first 89 amino acids; the methods give aa residues 89-270; also called GST-tagged AbdB-N; source: bacterially expressed (0.5 mM IPTG, 18°C, 2 h); GST-tagged bait in the pulldown; used as protein (50 …)
In the case of B1, the binding result is given as “binds”.
